Measured values as given in US20210205286A1 (UNM RAINFOREST INNOVATIONS, published 2021).
Values belong to the binder of their own block, whether it stands above or below them.

How the values were obtained:
[1] = target: T1, USP9X (endogenous) (UniProt Q93008 1-2554, limits assumed); assay: co-IP, anti-FLAG IP, blot for endogenous USP9X, HEK293T (FIG. 3C)
T1 construct: also called deubiquitinating enzyme USP9X; DUB USP9X

[2] = target: T2, LAMP2 (endogenous) (UniProt P13473 29-410, limits assumed, glycosylated (binding told as glycan-dependent)); assay: co-IP, anti-FLAG IP, blot for endogenous LAMP2, HEK293T, 1 mM LLOMe 30 min (FIG. 2B)
T2 construct: Integral lysosomal membrane glycoprotein
Description: (A) APEX2 proximity biotinylation analysis. […] Biotinylated proteins were then affinity-isolated on streptavidin beads and analyzed by immunoblotting in response to LLOMe. (B) Co-immunoprecipitation (Co-IP) analysis of interactions between LAMP2 and Gal9. HEK293T cells expressing FLAG-tagged Gal9 or glycan recognition mutant forms of Gal9 (individual R65A, R239A, or double/combined R65A/R239A were treated with 1 mM LLOMe for 30 min in full medium. IP, anti-FLAG antibody; immunoblotting with endogenous LAMP2. (C) Immunofluorescence confocal microscopy visualization of Gal9 puncta in Hula cells transfected with FLAG-Gal9^WT or double mutant FLAG-Gal9^{R65A/R239A} and treated with lysosomal damaging agent (1 mM LLOMe) in full medium for 30 min. Cells were immunostained for FLAG-Gal9. Scale bar, 10 μM . (D) Analysis of FLAG-Gal9 puncta formation in Huh7 WT cells transfected with FLAG-Gal9 and respective mutants. Cells as in (C) were treated as in (C), measured by FICM (blue: nuclei, Hoechst 33342; green: anti-FLAG antibody, Alexa-488). White masks, computer algorithm-defined cell boundaries; green masks, computer-identified Gal9 puncta. (E) Immunofluorescence confocal microscopy visualization of Ub puncta in Gal9WT^Huh7 and Gal9KO^Huh7 cells complemented with FLAG-Gal9^WT or FLAG-Gal9^{R65A/R239A}. […] (F) Endogenous Ub puncta quantified by HCM. […]

[3] = target: T2, LAMP2 (endogenous); assay: co-IP, anti-GFP IP of GFP-tagged galectins, blot for endogenous LAMP2 (FIG. S2B)
From the text: (B) Co-IP analysis of galectins and LAMP2. Cells expressing GFP-tagged galectins were subjected to anti-GFP immunoprecipitation followed by immunoblotting for endogenous LAMP2. (C) Schematic, strategy for stable HeLa Flp-In Gal9^Tet-ON which stably express mCherry-Gal9 induced by tetracycline. HeLa Flp-In Gal9^Tet-ON cells treated with LLOMe in a time dependent manner quantified by HCM. (D) HCM visualization of mCherry-Gal9 localization relative to LAMP2-positive lysosomes. Cells as in (C) were treated with LLOMe for 30 min in full medium and immunostained for endogenous LAMP2 and mCherry Gal9. (E) Immunofluorescence confocal microscopy visualization of mCherry-Gal9 localization relative to LAMP2-positive lysosomes. Cells as in (D) immunostained for endogenous LAMP2 and mCherry Gal9. Scale bar, 10 μM. (F) HCM visualization of mCherry-Gal9 localization relative to endogenous Ub puncta. Cells as in (C) were treated with LLOMe for 30 min in full medium and immunostained for endogenous Ub and mCherry Gal9. (G) Immunofluorescence confocal microscopy visualization of mcherry-Gal9 localization relative to endogenous Ub and LAMP1-positive lysosomes. Cells as in (C) were treated with LLOMe for 30 min in full medium and immunostained for endogenous Ub, LAMP1 and mCherry Gal9. Scale bar, 10 μM. […]

T2 sequence (P13473 29-410 limits assumed): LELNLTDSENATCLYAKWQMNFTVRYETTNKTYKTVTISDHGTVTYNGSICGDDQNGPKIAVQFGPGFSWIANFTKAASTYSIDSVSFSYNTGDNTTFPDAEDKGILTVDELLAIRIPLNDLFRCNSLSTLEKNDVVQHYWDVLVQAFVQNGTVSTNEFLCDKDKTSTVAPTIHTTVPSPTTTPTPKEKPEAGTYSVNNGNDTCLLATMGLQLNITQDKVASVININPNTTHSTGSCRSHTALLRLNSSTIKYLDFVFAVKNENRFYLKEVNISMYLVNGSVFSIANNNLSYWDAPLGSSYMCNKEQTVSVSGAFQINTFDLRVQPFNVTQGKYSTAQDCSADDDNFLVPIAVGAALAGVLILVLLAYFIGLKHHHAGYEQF
T1 sequence (Q93008 whole entry): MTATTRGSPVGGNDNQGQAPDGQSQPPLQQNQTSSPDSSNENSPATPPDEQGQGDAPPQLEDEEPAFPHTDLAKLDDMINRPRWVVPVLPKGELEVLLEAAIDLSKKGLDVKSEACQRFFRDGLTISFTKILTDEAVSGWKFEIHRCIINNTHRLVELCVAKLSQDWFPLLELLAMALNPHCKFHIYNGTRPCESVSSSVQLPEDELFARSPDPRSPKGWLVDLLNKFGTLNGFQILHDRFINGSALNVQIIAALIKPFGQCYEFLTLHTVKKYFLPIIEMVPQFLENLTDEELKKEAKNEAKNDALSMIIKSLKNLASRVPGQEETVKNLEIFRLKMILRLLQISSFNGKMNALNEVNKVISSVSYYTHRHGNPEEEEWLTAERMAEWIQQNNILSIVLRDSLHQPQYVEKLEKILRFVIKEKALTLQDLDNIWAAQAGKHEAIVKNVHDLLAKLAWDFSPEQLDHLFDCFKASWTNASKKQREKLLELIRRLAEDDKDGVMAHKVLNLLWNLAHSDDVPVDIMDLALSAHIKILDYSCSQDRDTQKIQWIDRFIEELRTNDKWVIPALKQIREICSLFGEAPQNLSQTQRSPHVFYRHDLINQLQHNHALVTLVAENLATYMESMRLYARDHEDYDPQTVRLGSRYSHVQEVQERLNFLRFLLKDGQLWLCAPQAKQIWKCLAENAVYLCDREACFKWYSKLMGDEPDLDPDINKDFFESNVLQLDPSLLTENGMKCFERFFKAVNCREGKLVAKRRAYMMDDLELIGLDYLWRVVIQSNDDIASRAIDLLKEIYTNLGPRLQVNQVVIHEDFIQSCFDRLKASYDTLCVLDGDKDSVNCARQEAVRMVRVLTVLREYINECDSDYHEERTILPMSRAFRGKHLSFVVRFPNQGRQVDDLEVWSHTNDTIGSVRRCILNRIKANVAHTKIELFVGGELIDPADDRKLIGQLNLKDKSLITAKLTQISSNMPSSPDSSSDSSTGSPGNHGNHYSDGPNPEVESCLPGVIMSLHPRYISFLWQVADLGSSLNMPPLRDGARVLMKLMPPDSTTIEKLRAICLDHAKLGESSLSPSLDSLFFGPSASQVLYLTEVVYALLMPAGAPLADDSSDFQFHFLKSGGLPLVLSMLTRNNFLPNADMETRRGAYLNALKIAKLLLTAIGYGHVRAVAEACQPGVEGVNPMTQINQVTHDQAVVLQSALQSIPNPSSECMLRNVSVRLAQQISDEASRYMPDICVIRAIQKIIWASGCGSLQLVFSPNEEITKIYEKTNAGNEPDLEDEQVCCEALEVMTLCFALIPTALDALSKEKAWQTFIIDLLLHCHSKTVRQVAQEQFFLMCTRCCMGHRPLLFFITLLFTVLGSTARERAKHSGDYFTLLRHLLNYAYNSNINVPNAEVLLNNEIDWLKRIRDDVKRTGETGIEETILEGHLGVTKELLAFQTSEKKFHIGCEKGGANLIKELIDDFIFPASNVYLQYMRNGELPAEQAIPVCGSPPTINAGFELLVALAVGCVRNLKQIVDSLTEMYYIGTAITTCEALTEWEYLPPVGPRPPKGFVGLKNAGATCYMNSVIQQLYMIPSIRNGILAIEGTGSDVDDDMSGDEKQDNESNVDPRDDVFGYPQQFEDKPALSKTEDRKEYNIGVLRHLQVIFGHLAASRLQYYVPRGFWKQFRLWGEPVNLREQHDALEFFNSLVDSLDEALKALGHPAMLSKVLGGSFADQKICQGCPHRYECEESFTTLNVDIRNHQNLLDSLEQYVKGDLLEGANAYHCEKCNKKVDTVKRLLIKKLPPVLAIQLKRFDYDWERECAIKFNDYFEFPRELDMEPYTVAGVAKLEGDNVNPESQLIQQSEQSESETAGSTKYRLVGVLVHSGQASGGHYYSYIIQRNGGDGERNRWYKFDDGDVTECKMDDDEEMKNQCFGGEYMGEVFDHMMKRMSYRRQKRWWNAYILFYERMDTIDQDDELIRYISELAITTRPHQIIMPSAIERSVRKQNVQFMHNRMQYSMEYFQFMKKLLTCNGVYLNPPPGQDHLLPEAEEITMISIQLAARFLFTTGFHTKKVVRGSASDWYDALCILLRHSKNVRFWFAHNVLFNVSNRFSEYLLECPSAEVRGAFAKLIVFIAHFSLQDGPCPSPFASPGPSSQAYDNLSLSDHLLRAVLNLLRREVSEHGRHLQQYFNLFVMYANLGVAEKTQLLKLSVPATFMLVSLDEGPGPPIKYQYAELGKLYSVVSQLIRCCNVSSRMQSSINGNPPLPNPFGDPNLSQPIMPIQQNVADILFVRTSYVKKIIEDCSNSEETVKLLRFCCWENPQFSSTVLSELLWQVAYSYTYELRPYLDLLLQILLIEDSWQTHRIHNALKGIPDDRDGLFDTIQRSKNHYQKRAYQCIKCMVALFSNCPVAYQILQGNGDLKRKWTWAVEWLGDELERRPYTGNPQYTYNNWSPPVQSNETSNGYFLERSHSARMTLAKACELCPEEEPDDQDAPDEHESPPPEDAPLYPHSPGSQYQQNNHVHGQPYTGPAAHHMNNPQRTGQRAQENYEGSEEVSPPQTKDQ

binding result [1]: binds
binding result [2]: no binding
B1: FLAG-Gal9^R65A/R239A (other, UniProt O00182-2 1-323, looked up)
chain: MAFSGSQAPYLSPAVPFSGTIQGGLQDGLQITVNGTVLSSSGTRFAVNFQTGFSGNDIAFHFNPAFEDGGYVVCNTRQNGSWGPEERKTHMPFQKGMPFDLCFLVQSSDFKVMVNGILFVQYFHRVPFHRVDTISVNGSVQLSYISFQPPGVWPANPAPITQTVIHTVQSAPGQMFSTPAIPPMMYPHPAYPMPFITTILGGLYPSKSILLSGTVLPSAQRFHINLCSGNHIAFHLNPAFDENAVVRNTQIDNSWGSEERSLPRKMPFVRGQSFSVWILCEAHCLKVAVDGQHLFEYYHRLRNLPTINRLEVGGDIQLTHVQT
notes: also called double mutant; glycan recognition mutant; not shown: FLAG tag

binding result [3]: no binding
B2: GFP-Gal8 (other, UniProt O00214 1-317, looked up)
chain: MMLSLNNLQNIIYNPVIPFVGTIPDQLDPGTLIVIRGHVPSDADRFQVDLQNGSSMKPRADVAFHFNPRFKRAGCIVCNTLINEKWGREEITYDTPFKREKSFEIVIMVLKDKFQVAVNGKHTLLYGHRIGPEKIDTLGIYGKVNIHSIGFSFSSDLQSTQASSLELTEISRENVPKSGTPQLRLPFAARLNTPMGPGRTVVVKGEVNANAKSFNVDLLAGKSKDIALHLNPRLNIKAFVRNSFLQESWGEEERNITSFPFSPGMYFEMIIYCDVREFKVAVNGVHSLEYKHRFKELSSIDTLEINGDIHLLEVRSW
notes: also called Galectin 8; GFP-tagged galectin; not shown: GFP
